± gives the half width of the 95% confidence interval.
Columns and labels:
[1] = folding stability dG unfold from trypsin proteolysis; higher = more stable
How it was run: (§1)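 Designed mini-proteins (under 80 residues, no cysteine) in a PA-tagged cDNA display construct were digested with trypsin and chymotrypsin. Each protease was used at 11 concentrations (threefold dilutions) plus a no-protease condition, followed by sequencing. K50 was inferred by Bayesian fitting of sequencing counts, and unfolding free energy was derived against a sequence-predicted unfolded-state K50 and a shared folded-state K50, per protease or combined. Only designs with AlphaFold2 dimer inter-PAE above 15 were kept.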

[2] = folding stability dG unfold from chymotrypsin proteolysis; higher = more stable
How it was run: as §1

[3] = folding stability dG unfold (combined trypsin and chymotrypsin); higher = more stable
How it was run: as §1

| Sequence | folding stability dG unfold [1] [kJ/mol] | folding stability dG unfold [2] [kJ/mol] | folding stability dG unfold [3] [kJ/mol] |
| --- | --- | --- | --- |
| SAGGGLEEFARRLAEELARLLGGPNVPFELEGVVVFGFRLRPDGTPEPTTSRPVVVRVRFETPGGDPSAGGS [r16_156_TrMRF] | 11.3 ± 0.46 | 17.1 ± 0.184 | 15 ± 0.418 |
| SAGGGLPASDPDVTATTETFTVTYTEATPEGNPVTTTTTTTVTTYTAPDGAVTTTTTTTSTTVTPASTSAGG [r13_51_JUSTAS] | 7.11 ± 0.259 | 7.4 ± 0.0962 | 7.35 ± 0.159 |
| SAGGGLSPDTPVNYVVFVELPNGERRTFNVPGPAGRPEVAIAIAEKLREEGYEVKAIFPGEGVIVVGSAGGS [r8_497_TrMRF] | 12 ± 0.502 | 13.04 ± 0.0372 | 12.5 ± 0.335 |
| SAGGGMKISTVETKPESDGSIVITIKVYDANGNEIKTYTIPLKGLSNVTITIPVANNPIEVSIPATLSSAGG [r13_427_JUSTAS] | 6.19 ± 0.155 | 8.59 ± 0.326 | 7.71 ± 0.544 |
| SAGGGMLLTTTQTITLPNGTLLTVTSTFTLTPPAVPVPVVELDESSIAEYDPATGILTDPSVPTPIPVPSAG [r5_807_JUSTAS] | 3.07 ± 0.276 | 2.49 ± 0.46 | 3.2 ± 0.418 |
| SAGGGMNISVDPNQSVTIPVTRIENGVPVETTVTISLPAGSTISPEGDNIIINYPHTGQTITLPTTLISAGG [r13_275_JUSTAS] | 5.67 ± 0.18 | -0.727 ± 0.418 | 3.61 ± 0.172 |
| SAGGGMSTLVRLPPGGVEEREVPPGTEADLNAEFSPESKLVVRTFDPATGRWTETVYEPGGVPTVLSSSAGG [r13_74_JUSTAS] | 12.2 ± 0.343 | 15.3 ± 0.879 | 14.3 ± 1.34 |
| SAGGGMVITTPQTTSTTFSPPTAPAVPAPFTQSSSFTIGNTKVTVTTTQAAGSGTTTVTLTTILPPLASAGG [r13_998_JUSTAS] | 4.2 ± 0.142 | 4.93 ± 0.372 | 4.7 ± 0.272 |
| SAGGGNIRPVRIERLPDGSLLIVLVADSPDDAFSDESTLDALPGEEELLEARYDPSTGRVLLVRRFRPSAGG [r13_413_TrMRF] | 5.55 ± 0.23 | 7.17 ± 0.268 | 6.49 ± 0.297 |
| SAGGGNKVLLVVEAESPEVLEEKIREAEEAFGFTVTPLRREPLPDDRYRLVLEIDAPPEVVEFFKKESAGGS [r8_357_TrMRF] | 4.81 ± 0.134 | 5.65 ± 0.385 | 5.45 ± 0.188 |
| SAGGGPLKPILLKVTAKVEKNGKLLEVEAEIAVPLPNKPITLEEIRKILEEALPPDVKIVSLELDPESAGGS [r16_407_TrMRF] | 12.5 ± 0.837 | 10.9 ± 0.314 | 11.2 ± 0.879 |
| SAGGGPPPVEVTTSTDPSTGKVTTTVTAGPAGTRFTSSSPNGSSTTTTTVTYVGDTWEVSTSSTSSSSAGGS [r16_631_JUSTAS] | 5.07 ± 0.255 | 5.75 ± 0.46 | 5.48 ± 0.418 |
| SAGGGPVTEETYTIKRPDGTELVVTRYYFPGTGETVVRIYPPSTKTPLSTVPLSEASPELLAEIARRSAGGS [r8_32_JUSTAS] | 5 ± 0.113 | 8.82 ± 0.0544 | 7.48 ± 0.126 |
| SAGGGPVTVTVTFKPPSTGLTSTVTLPFPNVSSYEEAKERAEELAKEAGGPIETITFTDPATGKAHPLSAGG [r13_771_JUSTAS] | 1.88 ± 0.285 | 0.892 ± 1.13 | 2.7 ± 0.962 |
| SAGGGPVVLTDPVKTEKSPDGTTYTLTREVFYDPSRGEPLKVRFTLTKVTNYPDGVKTETLEEKEVALSAGG [r13_596_JUSTAS] | 3.41 ± 0.339 | 5.57 ± 0.795 | 4.56 ± 0.669 |
| SAGGGQTIEIKFPVPNENYRVYLMVYDPDKPISVEPQRFDPPDGEVTDKIKLPPDVKIGFMAFPPEDMSAGG [r13_977_TrROS] | 2.64 ± 0.138 | 4.04 ± 0.544 | 3.44 ± 0.201 |
| SAGGGRARLIELKEARFNPETGVLELTALVEFPEIGTLVVFRIRVPLEGEPRIEIEVEVYPIKPGEASAGGS [r16_207_TrMRF] | 13.3 ± 0.293 | 18 ± 0.234 | 16.7 ± 0.381 |
| SAGGGRVAVLKVEVRNPETGETTEVELVLPLPPEMTPEEAEEAAREAARTLAESTGVEVEIKSVELLSAGGS [r8_312_TrMRF] | 15.8 ± 0.285 | 13.72 ± 0.13 | 14.5 ± 0.222 |
| SAGGGSFINISKKEIAEAISKLIGKDYPLEDVKVSVTTLPENKTIINVEIKLPNTTETLYIPILFDVSAGGS [r16_42_TrMRF] | 8.73 ± 0.393 | 7.12 ± 0.0753 | 8.01 ± 0.285 |
| SAGGGSLSDIATVDTSSYTDPNNPASVTVTNVTIPDGSTVTVTYNPTTGTVTVTTATDGTTTTTTIPSSAGG [r13_960_JUSTAS] | 7.89 ± 0.795 | 3.84 ± 0.234 | 5.94 ± 0.628 |
| SAGGGSMEEARRLIEEIAEEVKAKGVKVKVRITFGPDPKVLSIEIFSPDEPIVDNGGPGLVTLTFDIPSAGG [r13_693_JUSTAS] | 8.68 ± 0.238 | 11.62 ± 0.0962 | 10.7 ± 0.264 |

| Sequence | folding stability dG unfold [1] [kJ/mol] | folding stability dG unfold [2] [kJ/mol] | folding stability dG unfold [3] [kJ/mol] |
| --- | --- | --- | --- |
| SAGGGSMPASITTEVTETTTPDATVTKSTVYYPDTGKWLEETTTTGPTTTITTTKFPDGSTTVTTAASAGGS [r16_657_JUSTAS] | 1.15 ± 0.218 | -4.94 ± 1.17 | -0.732 ± 0.46 |
| SAGGGSMSESLSLVEEEIKVGETVVKVKRLIYPVSGTALVEITKPGGGPIGVFNTTISPSTGGVELLSAGGS [r16_798_JUSTAS] | -4.33 ± 0.711 | -5.75 ± 2.38 | < -4.18 |
| SAGGGSSSTTTSTTTTTSTSIEPLPGDREVVVTTTTTTTTTTTTTTPPDGSSTSTTTTTTTTTTTVTLASAG [r5_428_JUSTAS] | 10.8 ± 0.962 | 6.08 ± 0.343 | 8.06 ± 0.544 |
| SAGGGSTVTTFDPSTGKTTVSIGTDPATGERTVTIVLKNGTPVTVPGPFPSVEEAEAAAAAAAAAAASAGGS [r16_319_JUSTAS] | 3.19 ± 0.18 | 3.45 ± 0.172 | 3.42 ± 0.406 |
| SAGGGSVTVSLEGNTTYVRISREDGPERTYTFPQPNGEPLTFTEAPGRPGLITITRPATGEPVVLALSAGGS [r16_198_JUSTAS] | 1.18 ± 0.753 | 0.0694 ± 1.3 | 0.918 ± 0.753 |
| SAGGGTFYLVVKVEKVAPNPETGELVEERLELVIPGKAPNAVSEEDLKAFVDALLPLGYKVEVELREGSAGG [r13_926_TrMRF] | 7.97 ± 0.502 | 8.68 ± 0.502 | 8.65 ± 0.837 |
| SAGGGTRTINFDSPEDAEDAIEDWPDWDKVTISVPSNGEPQSIPLKIKPPPPPKYKRDENGKPEPEPDSAGG [r13_183_TrROS] | 8.69 ± 0.586 | 12.4 ± 0.795 | 11.1 ± 1.05 |
| SAGGGTTITLSFADGTTKTLTLPGLTEVVEEPGRVVVRADVPERRVVVTFEPATGTITVEEFAPEEPVSAGG [r13_392_JUSTAS] | 3.42 ± 0.418 | 9.48 ± 0.238 | 7.8 ± 1.05 |
| SAGGGVPLTRSEPLGEIEFPEENIKLKISRYTSPLDGTEYIEITTDYGEGTSTSIYPPGEIEEILGGSAGGS [r16_603_JUSTAS] | 2.79 ± 0.502 | 5.82 ± 0.795 | 3.8 ± 0.753 |
| SAGGGVTITASPDGTVTITIGGKPITVPVHPGATLEFRVEPTPDGRPAVTITWTSPDGTPYTFTFTGSAGGS [r16_231_TrMRF] | 17.7 ± 0.586 | 20.98 ± 0.151 | 20.5 ± 0.222 |
| SAGGGVTITLKTADGKTLTLEIPGLTSVTVEPDKVTVEFEIPDYRITITFNPSTGTVEIKISHPDEPESAGG [r13_392_TrMRF] | 14.1 ± 0.795 | 16.4 ± 0.795 | 15.9 ± 0.837 |
| SAGGGWKPIGKEEITLPFGIKVTVDIWTWPDGMIMIMIEIEIPVPPPKPPVPPMSPEDMKDMNEDNGSAGGS [r16_6_TrROS] | 8.6 ± 0.586 | 15.9 ± 1 | 13.4 ± 1.8 |
| SAGGGYRAVAVFERPDGRREVVFIEFESEEEALREAEEIARRFGLRLKELRVYPVEPLPPVRPELAGSAGGS [r8_364_TrMRF] | 14.6 ± 0.372 | 21.6 ± 0.347 | 20.4 ± 0.377 |
| SAGGHHHHHHHHIDGKFRSEEEAKKLKEEIEKELRAKGYTDIEVEVEVKVEEPPPRRPRPGSPAYTLGSAGG [r13_6_JUSTAS] | 6.07 ± 0.669 | 2.4 ± 0.46 | 4 ± 1.42 |
| SAGGIDLDDLPPGDIFIFIKIKMEPVKVDDPDGKEYNRMEIEIFIFRFDPPNGKIQFEPIPMEFYIRSAGGS [r8_486_TrROS] | 11.8 ± 1.05 | 13.7 ± 0.268 | 13.3 ± 0.962 |
| SAGGIDLSKLPKNSIVVITKVKVYPTKVGEPDGEGEGYVEVELRVFRNIPPTGKILSSPLPVKFKIASAGGS [r8_486_TrMRF] | 4.99 ± 0.167 | 4.13 ± 1.05 | 4.91 ± 0.502 |
| SAGGIEELAKALGIEEVEVTSIDPETREVTVRVRVRGPDGEERTLTVKIRLEPAPPPVRTFSEEELKSSAGG [r13_608_TrROS_Hall] | 7.43 ± 0.121 | 4.44 ± 0.167 | 6.08 ± 0.364 |
| SAGGIEVDPEHKHVHIHIPNGNIPELLDLIEDAPGDHVSIHFYNPGNGKPRRFTMPRKEARKFLEQFSAGGS [r16_797_TrROS] | 4.72 ± 0.138 | 3.49 ± 0.36 | 4.36 ± 0.184 |
| SAGGIIEIDPNGWVIRIEMYPPDGKPPKHTIPFPNATPEELIDELKDWADQLPNPGHKVKIDEITPMPSAGG [r13_29_TrROS] | 0.217 ± 0.297 | 1.56 ± 0.711 | 0.739 ± 0.36 |
| SAGGILDLAAERNAVSVEVLEVNPEPPTVTVRLTYRNAAGEPRTATFTVELPPPAPPVPLVLPGEATFSAGG [r13_608_TrMRF] | 3.08 ± 0.247 | 10.3 ± 0.46 | 7.75 ± 0.372 |
| SAGGIRIRDEDGKPRAEYTIYHPDHGMPIEINVYRNKDGNPYIQVEMTGPNGRPKKFTMPADDLNDLSAGGS [r8_24_TrROS] | -3.61 ± 2.18 | 2.34 ± 0.544 | 1.11 ± 0.343 |

From the supplement of paper PMC12764529
